Data as given in patent publication US20190048074A1 (Regeneron, published 2019).
Read-outs that look alike come from different tables or passages of the source.

Columns and labels:
[1] = target: T1, full length cynomolgus APLNR (cynomolgus monkey (Macaca fascicularis), UniProt O97666 1-380 (rhesus entry)); test: FACS, 10 µg/mL antibody, HEK293/CRE-luc/MfAPLNR cells
T1 construct: Stably expressed on HEK293/CRE-luc/MfAPLNR cells; also called MfAPLNR; mfAPLNR
T1 sequence: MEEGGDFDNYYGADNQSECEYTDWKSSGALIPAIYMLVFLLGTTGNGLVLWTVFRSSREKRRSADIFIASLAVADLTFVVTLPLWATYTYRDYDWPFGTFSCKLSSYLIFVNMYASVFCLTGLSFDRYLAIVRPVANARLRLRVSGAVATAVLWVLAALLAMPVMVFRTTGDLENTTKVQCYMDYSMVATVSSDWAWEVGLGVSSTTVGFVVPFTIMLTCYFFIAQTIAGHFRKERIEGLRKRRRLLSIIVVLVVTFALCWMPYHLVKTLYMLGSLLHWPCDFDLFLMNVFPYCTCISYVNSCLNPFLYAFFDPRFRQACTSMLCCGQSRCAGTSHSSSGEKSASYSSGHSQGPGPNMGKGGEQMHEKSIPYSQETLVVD

full-length human APLNR [2] = target: T2, full-length human APLNR (human, UniProt P35414 1-380); test: FACS, 10 µg/mL antibody, HEK293/CRE-luc/hAPLNR cells
T2 construct: Stably expressed on HEK293/CRE-luc/hAPLNR cells (FACS, CRE-luc assays) and on CHO/hAPLNR cells (pERK assays); also called hAPLNR; apelin receptor
T2 sequence: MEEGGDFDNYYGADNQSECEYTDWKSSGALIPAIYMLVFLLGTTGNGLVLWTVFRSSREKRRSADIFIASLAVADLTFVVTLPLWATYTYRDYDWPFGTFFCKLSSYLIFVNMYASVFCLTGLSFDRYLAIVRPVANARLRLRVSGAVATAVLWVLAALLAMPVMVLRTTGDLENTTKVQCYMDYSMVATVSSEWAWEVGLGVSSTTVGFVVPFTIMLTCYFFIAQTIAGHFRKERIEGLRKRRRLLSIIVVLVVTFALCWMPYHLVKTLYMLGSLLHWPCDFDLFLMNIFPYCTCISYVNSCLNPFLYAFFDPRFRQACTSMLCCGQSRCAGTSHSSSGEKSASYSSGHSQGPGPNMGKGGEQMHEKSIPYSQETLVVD

full-length human APLNR [3] = target: T2, full-length human APLNR; test: cell-based or functional assay
full-length human APLNR [4] = target: T2, full-length human APLNR; test: cell-based or functional assay; remark: listed apart in the source
full-length human APLNR [5] = target: T2, full-length human APLNR; test: cell-based or functional assay; remark: listed apart in the source
full-length human APLNR [6] = target: T2, full-length human APLNR; test: FACS, 10 µg/mL antibody, HEK293/CRE-luc/hAPLNR cells; remark: listed apart in the source
[7] = target: T1, full length cynomolgus APLNR; test: FACS, 10 µg/mL antibody, HEK293/CRE-luc/MfAPLNR cells; remark: listed apart in the source
full-length human APLNR [8] = target: T2, full-length human APLNR; test: cell-based or functional assay; remark: listed apart in the source

Binder | Binding Ratio of Geom. Mean to Unstained Cells [1] [fold] | Binding Ratio of Geom. Mean to Unstained Cells (full-length human APLNR [2]) [fold] | % Inhibition at 100 nM antibody, in the presence of 100 ρM Apelin (at 5 µM Forskolin) (full-length human APLNR [3]) [%] | % Activation at 500 nM mAb (at 7.5 uM Forskolin) (full-length human APLNR [5]) [%] | IC50 [M], in the presence of 100 ρM Apelin (at 5 µM Forskolin) (full-length human APLNR [3]) [M] | Binding Ratio of Geom. Mean to Unstained Cells (full-length human APLNR [6]) [fold] | Binding Ratio of Geom. Mean to Unstained Cells [7] [fold] | also measured
H4H9103P (antibody, V domains shown, Fully human, human IgG4 Fc) VH: EVQLVESGGGLVQPGRSLRLSCAASGFTFDDYAMHWVRQVPGKGLEWVSGITWNSGDIGYADSVKGRFTISRDNAKNSLYLQMNSLRAEDTALYYCTKDKDSSGYYGIDVWGQGTTVTVSS VL: DIQMTQSPSSVSASVGDRVTITCRASQGIRTWLAWYQQKPGKAPKLLIYAASSLQSGVPSRFSGSESGTDFTLTISSLQPEDFATYYCQQANSFPFTFGPGTKVDIK | 2 | 3 |  |  |  |  |  | 
H4H9112P (antibody, V domains shown, Fully human, human IgG4 Fc) VH: QVQLVQSGAEVKKPGASVEVSCKASGYTFTDYYIHWIRQAPGQGLEWMGWINPDSGRTNYAQKFQVRVTMTRDTSITTAYMELNRLKSDDTAVYYCARGPLRGYSGYDFFDYWGQGTLVTVSS VL: DIQMTQSPSSLSAFVGDRVTITCRASQSISSYLNWYQQKPGKAPKLLIYTASTLQRGVPSRFRGSGSGTDFTLTISSLQPEDFATYYCHQTYSIPITFGQGTRLEIK | 2 | 2 |  |  |  |  |  | 
H4H9104P (antibody, V domains shown, Fully human, human IgG4 Fc) VH: QVQLVESGGDLVKPGGSLRLSCAASGFTFSDYYMNWIRQAPGKGLEWVSYISSSGSTIHYADSVKGRFTISRDNAKNLVYLRMNSLRAEDTAVYFCAREREVHDYSDPYFFFYGMDVWGQGTTVTVSS VL: DIQMTQSPSSVSASVGDRVTITCRASQDVSSWLAWYQHKPGKAPKLLIFAASSLQSGVPSRFSGSGSGTDFTLTISSLQSEDFATYYCQQANSFPLTFGGGTKVEIK | 1 | 2 |  |  |  |  |  | 
H2aM9222N (antibody, V domains shown, Human variable domains, mouse IgG2a Fc) VH: EVQLVESGGGLVQPGGSLRLSCAASGFTFSNYWMSWVRQAPGKGLEWVANIKQDGSERYYVGSVKGRFTISRGDAENSLYLQMNSLRAEDTAVYYCARDRFGYSAYDKGVRYYYGMDVWGQGTTVTVSS VL: DIQMTQSPSSLSASVGDRVTITCRASQGIRNDLGWYQQKPGKAPKRLIYAASSLQSGVPSRFSGSGSGTEFTLTISSLQPEDFATYYCLQHNSYPRTFGQGTKVEIK |  |  | 11 | 21 |  |  |  | Activating EC50 (M), pERK/total ERK assay, CHO/hAPLNR cells (full-length human APLNR [4]): 4.79e-08 M
H4H9113P (antibody, V domains shown, Fully human, human IgG4 Fc) VH: QVQLVQSGAEVKKPGASVEVSCKASGYTFTDYYIHWIRQAPGQGLEWMGWINPDSGRTNYAQKFQVRVTMTRDTSITTAYMELNRLKSDDTAVYYCARGPLRGYSGYDFFDYWGQGTLVTVSS VL: DIQMTQSPSSLSASVGDRVTITCRASQGIRNDLGWYQQKPGKAPNRLIYAASSLQSGVPSRFSGSGSGTEFTLTISSLHPEDFATYSCLQHNSFPLTFGGGTKVEIK | 1 | 2 |  |  |  |  |  | 
H2aM9230N (antibody, V domains shown, Human variable domains, mouse IgG2a Fc) VH: EVQLVESGGGLVQPGGSLRLSCAASGFTFSSFWMSWVRQVPGKGLQWVANIKQDGSEKYYVDSVKGRFTISRDNAKNSLYLQMNSLRAEDTAVYYCARDRFGYSVYDKGVRYYYGMDVWGQGTTVTVSS VL: DIQMTQSPSSLSVSVGDRVTITCRASQGIRNDLGWYQQKPGKAPKRLIYAASSLQSGVPSRFSGSGSGTEFTLTISGLQSEDFATYYCLQHKSYPRTFGQGTKVEIK |  |  | 49 | 52 | 2.4e-09 | 2940 | 658 | 
H2aM9228N (antibody, V domains shown, Human variable domains, mouse IgG2a Fc) VH: EVQLVESGGGLVQPGGSLRLSCAASGFTFSNYWMSWVRLAPGKGLEWVANIKQDGSERYYVGSVKGRFTISRGDAKNSLYLQMNSLRAEDTAVYYCARDRFGYSAFDKGVRYYYGMDVWGQGTTVTVSS VL: DIQMTQSPSSLSASVGDRVTITCRASQGIRNDLGWYQQKPGKAPKRLIYAASSLQSGVPSRFSGSGSGTEFTLTISSLQPEDFATYYCLQHNSYPRTFGQGTKVEIK |  |  | 26 | 49 | > 1e-07 | 1490 | 108 | Activating EC50 (M), pERK/total ERK assay, CHO/hAPLNR cells (full-length human APLNR [4]): 6.41e-08 M
H2aM9227N (antibody, V domains shown, Human variable domains, mouse IgG2a Fc) VH: EVQLVESGGGLVQPGGSLRLSCAASGFTFSSFWMSWVRQVPGKGLEWVANIKQDGSEKYYVDSVKGRFTISRDNAKNSLYLQMNSLRAEDTAVYYCARDRFGYSFYDKGVRYYYGMDVWGQGTTVTVSS VL: DIQMTQSPSSLSVSVGDRVTITCRASQGIRNDLGWYQQKPGKAPKRLIYATSSLQSGVPSRFSGSGSGTEFTLTISGLQPEDFATYYCLQHNSYPRTFGQGTKVEIK |  |  | 33 | 45 | 4.3e-09 | 4100 | 1440 | 
H2aM9232N (antibody, V domains shown, Human variable domains, mouse IgG2a Fc) VH: QVKLVESGGGVVQPGRSLRLSCAASGFTFSNYVIHWVRQAPGKGLEWVAVIWYDGSNKYYADSVKGRFTISRDNSKNTLYLQMNSLRAEDTAVYYCARDRVVRGVDYYYYYGLDVWGQGTSVTVSS VL: EIVMTQSPATLSVSPGERATLSCRASQSVRSNLAWYQQKPGQAPRLLIYGASSRATGIPARFSGTGSGTEFTLTISSLQSDDFAVYYCQQYNKWPRTFGQGTKVEIK |  |  | 98 |  | 4.2e-09 | 2860 | 678 | Inhibiting IC50 (M), pERK/total ERK assay, CHO/hAPLNR cells (full-length human APLNR [4]): 2.09e-07 M
H4H9209N (antibody, V domains shown) VH: EVQLLESGGGLVQPGGSLRLSCAASGFTFSNYAMNWVRQAPGRGLEWVSAIHYDGSNSYYADSVKGRFTISRDNSKNTLYLQMNSLRAEDTAIYYCAILSRVYWGQGTLVTVSS VL: DIQMTQSPSSLSASVGDRVTITCRASQGINNYLAWFQQKPGKAPKSLIYATSSLQSGVPSKFSGSGSGTDFTLTISSLQPEDFATYYCQQYNSYPLTFGGGTKVEIK |  |  |  |  |  |  |  | % Inhibition at 100 nM mAb, in the presence of 100 ρM Apelin (at 10 µM Forskolin) (full-length human APLNR [8]): 16%; IC50 [M], in the presence of 100 ρM Apelin (at 10 µM Forskolin) (full-length human APLNR [8]): 5.9e-09 M
H2aM9209N (antibody, V domains shown) VH: EVQLLESGGGLVQPGGSLRLSCAASGFTFSNYAMNWVRQAPGRGLEWVSAIHYDGSNSYYADSVKGRFTISRDNSKNTLYLQMNSLRAEDTAIYYCAILSRVYWGQGTLVTVSS VL: DIQMTQSPSSLSASVGDRVTITCRASQGINNYLAWFQQKPGKAPKSLIYATSSLQSGVPSKFSGSGSGTDFTLTISSLQPEDFATYYCQQYNSYPLTFGGGTKVEIK |  |  | 7 |  |  |  |  | 
H1M9207N (antibody, V domains shown, Human variable domains, mouse IgG1 Fc (H1M prefix)) VH: EVQLVESGGGLAQPGGSLRLSCAASGFTFSNYWMSWVRQAPGKGLEWVANIKQDGSEKYYLESVKGRFTISRDNAKNLLYLQMNSLRAEDTAVFYCARPGLLRFLEPGRRYYSGMNVWGQGTTVTVSS VL: DIQLTQSPSFLSASVGDRVTITCWASQGIRSYLAWYQQKPGKAPKLLIYAASTLQSGVPSRFSGSGSGTEFTLTISSLQPEDFATYYCQQFNSYPWTFGQGTKVEIK |  |  | 83 |  | 3e-09 | 2180 | 1310 | 
H4H9101P (antibody, V domains shown, Fully human, human IgG4 Fc) VH: QVQLVQSGAEVKKPGASVEVSCKASGYTFTDYYIHWIRQAPGQGLEWMGWINPDSGRTNYAQKFQVRVTMTRDTSITTAYMELNRLKSDDTAVYYCARGPLRGYSGYDFFDYWGQGTLVTVSS VL: DIQLTQSPSFLSASVGDRVTITCWASQGISSYLAWYQQKPGKAPKLLIYAASTLQSGVPSRFSGSGSGTEFTLTISSLQPEDFASYFCQQLNSNPRTFGQGTKVEIK | 2 | 3 |  |  |  |  |  | 
